In PMC8640787:

Molecular target: gastrin-releasing peptide receptor (GRPR) with a C-terminal NLuc tag (human) (UniProt P30550)
Test: FRET or BRET

Chain of UniProt P30550 (P30550 whole entry): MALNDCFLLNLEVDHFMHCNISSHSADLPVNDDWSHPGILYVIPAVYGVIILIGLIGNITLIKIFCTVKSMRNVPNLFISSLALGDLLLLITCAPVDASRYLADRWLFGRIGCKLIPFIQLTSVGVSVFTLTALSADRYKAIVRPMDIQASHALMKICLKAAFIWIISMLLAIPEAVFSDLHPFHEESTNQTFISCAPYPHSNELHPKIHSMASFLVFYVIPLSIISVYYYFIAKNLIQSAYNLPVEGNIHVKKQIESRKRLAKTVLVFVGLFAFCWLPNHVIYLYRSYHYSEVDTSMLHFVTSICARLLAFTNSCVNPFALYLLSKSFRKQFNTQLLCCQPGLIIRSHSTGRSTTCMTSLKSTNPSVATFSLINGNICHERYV

venus-mGq (engineered mini Gαq probe) showed an efficacy of miniGq recruitment with AG-2-BBN-1 (% of AMBA) of 57%.
